Assay results as given in publication PMC4027190.

Assay: western blot (and ELISA for N38S) of culture media
Conditions: glycan lost; control: wild type

B1: matrix metalloproteinase-9 (MMP-9): mS38 (protein)
parent chain: MSLWQPLVLVLLVLGCCFAAPRQRQSTLVLFPGDLRTNLTDRQLAEEYLYRYGYTRVAEMRGESKSLGPALLLLQKQLSLPETGELDSATLKAMRTPRCGVPDLGRFQTFEGDLKWHHHNITYWIQNYSEDLPRAVIDDAFARAFALWSAVTPLTFTRVYSRDADIVIQFGVAEHGDGYPFDGKDGLLAHAFPPGPGIQGDAHFDDDELWSLGKGVVVPTRFGNADGAACHFPFIFEGRSYSACTTDGRSDGLPWCSTTANYDTDDRFGFCPSERLYTQDGNADGKPCQFPFIFQGQSYSACTTDGRSDGYRWCATTANYDRDKLFGFCPTRADSTVMGGNSAGELCVFPFTFLGKEYSTCTSEGRGDGRLWCATTSNFDSDKKWGFCPDQGYSLFLVAAHEFGHALGLDHSSVPEALMYPMYRFTEGPPLHKDDVNGIRHLYGPRPEPEPRPPTTTTPQPTAPPTVCPTGPPTVHPSERPTAGPTGPPSAGPTGPPTAGPSTATTVPLSPVDDACNVNIFDAIAEIGNQLYLFKDGKYWRFSEGRGSRPQGPFLIADKWPALPRKLDSVFEERLSKKLFFFSGRQVWVYTGASVLGPRRLDKLGLGADVAQVTGALRSGRGKMLLFSGRRLWRFDVKAQMVDPRSASEVDRMFPGVPLDTHDVFQYREKAYFCQDRFYWRVSSRSELNQVDQVGYVTYDILQCPED
expression_or_secretion: no change
